The text below walks through data of patent publication US20220257825A1.

The assay has as its target cell adhesion mediating proteins (CAMP), e.g. integrins, on the cells of the pig skin. The assay can be described thus: cell-based or functional assay.

B1: C16spRGD (eADF4 (C16) genetically fused at the C-terminus to the tag spRGD, …) (protein)
chain: MASMTGGQQMGRGSMGSSAAAAAAAASGPGGYGPENQGPSGPGGYGPGGPGSSAAAAAAAASGPGGYGPENQGPSGPGGYGPGGPGSSAAAAAAAASGPGGYGPENQGPSGPGGYGPGGPGSSAAAAAAAASGPGGYGPENQGPSGPGGYGPGGPGSSAAAAAAAASGPGGYGPENQGPSGPGGYGPGGPGSSAAAAAAAASGPGGYGPENQGPSGPGGYGPGGPGSSAAAAAAAASGPGGYGPENQGPSGPGGYGPGGPGSSAAAAAAAASGPGGYGPENQGPSGPGGYGPGGPGSSAAAAAAAASGPGGYGPENQGPSGPGGYGPGGPGSSAAAAAAAASGPGGYGPENQGPSGPGGYGPGGPGSSAAAAAAAASGPGGYGPENQGPSGPGGYGPGGPGSSAAAAAAAASGPGGYGPENQGPSGPGGYGPGGPGSSAAAAAAAASGPGGYGPENQGPSGPGGYGPGGPGSSAAAAAAAASGPGGYGPENQGPSGPGGYGPGGPGSSAAAAAAAASGPGGYGPENQGPSGPGGYGPGGPGSSAAAAAAAASGPGGYGPENQGPSGPGGYGPGGPGGGSGGRGDSPG
For the molecule B1, the Average σmax (N), pulling test on pig skin stripes, 35 mg/ml, 30 min incubation amounted to 5.29 N and the average maximal adhesion strength compared with C16 (no RGD), pulling test on pig skin amounted to 80%.
